From patent US20220380444A1 (UNIVERSITY COLLEGE CARDIFF CONSULTANTS, published 2022)

What was measured:
[1] = target: T1, human complement protein C7 (human, UniProt P10643 23-843); assay: sandwich ELISA, 2H2 coated as capture, human C7 titrated, goat anti-C7 as detection
T1 construct: Purified in house, or present in human serum in the western blots; also called human C7; Hu C7

rat C7 protein [2] = target: T2, rat C7 protein (rat); assay: cell-based or functional assay
T2 chain: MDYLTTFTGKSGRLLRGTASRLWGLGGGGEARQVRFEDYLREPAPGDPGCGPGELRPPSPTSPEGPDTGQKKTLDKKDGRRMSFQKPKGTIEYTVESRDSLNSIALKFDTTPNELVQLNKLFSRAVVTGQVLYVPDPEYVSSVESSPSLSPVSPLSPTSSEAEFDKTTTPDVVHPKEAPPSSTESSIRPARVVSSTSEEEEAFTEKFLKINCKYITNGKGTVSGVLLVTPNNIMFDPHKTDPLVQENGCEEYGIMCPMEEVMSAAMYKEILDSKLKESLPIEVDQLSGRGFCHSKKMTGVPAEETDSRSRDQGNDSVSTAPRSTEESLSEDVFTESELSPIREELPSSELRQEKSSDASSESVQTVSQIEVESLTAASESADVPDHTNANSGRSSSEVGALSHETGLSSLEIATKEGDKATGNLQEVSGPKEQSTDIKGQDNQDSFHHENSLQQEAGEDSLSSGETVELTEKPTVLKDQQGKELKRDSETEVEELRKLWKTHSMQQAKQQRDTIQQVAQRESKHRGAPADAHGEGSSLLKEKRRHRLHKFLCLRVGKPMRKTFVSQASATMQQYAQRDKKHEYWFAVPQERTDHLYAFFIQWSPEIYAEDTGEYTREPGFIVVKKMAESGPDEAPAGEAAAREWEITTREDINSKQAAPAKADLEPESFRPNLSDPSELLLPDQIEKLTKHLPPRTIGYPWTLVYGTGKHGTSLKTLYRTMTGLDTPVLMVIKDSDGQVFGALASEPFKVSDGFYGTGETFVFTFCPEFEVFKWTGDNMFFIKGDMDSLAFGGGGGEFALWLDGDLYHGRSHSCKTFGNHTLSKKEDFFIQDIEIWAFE

mouse C7 protein = mouse C7 protein (mouse, UniProt D3YXF5 23-845); assay: cell-based or functional assay
mouse C7 protein, sequence (D3YXF5 23-845 limits assumed): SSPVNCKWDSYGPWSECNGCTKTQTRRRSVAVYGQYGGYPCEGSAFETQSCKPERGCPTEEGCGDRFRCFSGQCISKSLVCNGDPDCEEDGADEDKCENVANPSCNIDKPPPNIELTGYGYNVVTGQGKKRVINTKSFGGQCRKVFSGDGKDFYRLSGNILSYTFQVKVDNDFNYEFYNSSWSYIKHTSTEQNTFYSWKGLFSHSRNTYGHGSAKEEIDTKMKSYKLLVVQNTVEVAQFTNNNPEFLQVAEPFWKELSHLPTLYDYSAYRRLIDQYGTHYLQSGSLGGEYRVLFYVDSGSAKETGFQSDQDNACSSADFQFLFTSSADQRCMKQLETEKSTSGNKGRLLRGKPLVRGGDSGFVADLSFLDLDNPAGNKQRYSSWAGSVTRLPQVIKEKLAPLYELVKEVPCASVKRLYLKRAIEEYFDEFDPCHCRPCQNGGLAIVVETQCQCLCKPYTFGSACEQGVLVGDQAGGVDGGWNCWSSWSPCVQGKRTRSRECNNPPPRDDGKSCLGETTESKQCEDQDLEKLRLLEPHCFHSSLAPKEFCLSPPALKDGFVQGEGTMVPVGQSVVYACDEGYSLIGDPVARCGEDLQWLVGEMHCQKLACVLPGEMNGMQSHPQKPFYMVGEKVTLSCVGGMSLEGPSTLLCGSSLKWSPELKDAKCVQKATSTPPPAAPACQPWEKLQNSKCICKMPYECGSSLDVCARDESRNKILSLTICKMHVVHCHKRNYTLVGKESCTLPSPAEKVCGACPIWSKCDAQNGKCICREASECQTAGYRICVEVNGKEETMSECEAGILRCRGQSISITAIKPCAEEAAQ

[3] = target: T1, human complement protein C7; assay: cell-based or functional assay
rat C7 protein [4] = target: T2, rat C7 protein; assay: direct ELISA, rat C7 on the well, antibody titrated
[5] = target: T1, human complement protein C7; assay: sandwich ELISA, 2H2 coated as capture, human C7 titrated, polyclonal anti-C7 as detection
rat C7 protein [6] = target: T2, rat C7 protein; assay: SPR (Biacore); antibody captured on mouse IgG capture kit (CM5 chip), C7 flowed over
Experimental: (§1) Dissociation was then measured for a further 600 seconds. The surface was regenerated between each cycle.

[7] = target: T1, human complement protein C7; assay: as above
Experimental: as §1

[8] = target: T1, human complement protein C7; assay: direct ELISA, C7 immobilised on the well, antibody titrated
Experimental: Wells were blocked with bovine serum albumin (BSA), washed, then incubated (1 hour at 37° C.) with test samples containing mAb (supernatants from hybridoma clones for example). Wells were washed then incubated as above with peroxidase-labelled anti-mouse immunoglobulin (Jackson Labs). Wells were washed and signals were developed with OPD (o-phenylenediamine dihydrochloride; Sigma). Colour development was stopped by adding 10% H₂SO₄ to all wells, usually within 5 minutes. The absorbance of each well was measured at 492 nm.

T1 sequence (P10643 other isoform, or with tags, fused parts or gaps limits assumed): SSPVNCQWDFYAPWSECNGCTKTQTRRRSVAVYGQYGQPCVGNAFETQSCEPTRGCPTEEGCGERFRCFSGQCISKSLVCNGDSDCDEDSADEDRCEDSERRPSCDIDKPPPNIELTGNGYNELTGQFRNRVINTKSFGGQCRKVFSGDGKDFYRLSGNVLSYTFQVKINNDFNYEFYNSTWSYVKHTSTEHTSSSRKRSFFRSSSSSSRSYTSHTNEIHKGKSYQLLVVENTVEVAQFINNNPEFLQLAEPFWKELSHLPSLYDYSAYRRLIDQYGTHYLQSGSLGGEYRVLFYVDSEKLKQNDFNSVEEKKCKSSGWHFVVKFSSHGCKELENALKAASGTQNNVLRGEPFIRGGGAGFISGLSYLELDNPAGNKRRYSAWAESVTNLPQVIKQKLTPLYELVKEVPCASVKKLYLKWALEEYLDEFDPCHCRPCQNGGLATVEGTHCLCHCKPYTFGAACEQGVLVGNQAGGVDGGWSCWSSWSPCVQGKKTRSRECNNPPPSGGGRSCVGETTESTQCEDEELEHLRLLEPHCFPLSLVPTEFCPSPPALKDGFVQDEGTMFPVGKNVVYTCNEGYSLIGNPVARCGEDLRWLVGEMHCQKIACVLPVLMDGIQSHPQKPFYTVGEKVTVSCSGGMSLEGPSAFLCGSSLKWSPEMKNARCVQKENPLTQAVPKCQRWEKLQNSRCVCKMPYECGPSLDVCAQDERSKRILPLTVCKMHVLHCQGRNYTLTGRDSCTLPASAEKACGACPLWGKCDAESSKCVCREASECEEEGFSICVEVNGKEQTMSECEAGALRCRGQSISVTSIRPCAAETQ

EC50 (read off the curve) [1] [µg/mL] | EC50 (read off the curve) (rat C7 protein [4]) [µg/mL] | EC50 (read off the curve) [5] [µg/mL] | Kd (rat C7 protein [6]) [nM] | koff (rat C7 protein [6]) [s⁻¹] | kon (rat C7 protein [6]) [M⁻¹ s⁻¹] | Kd [7] [nM] | koff [7] [s⁻¹] | kon [7] [M⁻¹ s⁻¹] | EC50 (read off the curve) [8] [µg/mL] | Binder | 50% Inhibitory Dose, classical pathway haemolysis assay (rat C7 protein [2]) [ng/mL] | Haemolytic Units (HU), classical pathway haemolysis assay (rat C7 protein [2]) [HU] | 50% Inhibitory Dose, classical pathway haemolysis assay (mouse C7 protein) [ng/mL] | Haemolytic Units (HU), classical pathway haemolysis assay (mouse C7 protein) [HU] | 50% Inhibitory Dose, classical pathway haemolysis assay [3] [ng/mL] | Haemolytic Units (HU), classical pathway haemolysis assay [3] [HU]
~0.6 | ~3 | ~0.6 |  |  |  |  |  |  |  | monoclonal anti-C7 antibody 2H2 (antibody, IgG2b, V domains shown, Biotinylated in the pull-down assays; also called mAb 2H2; clone 2H2) VH: QVQLQQPGAELMKPGASVKLSCKASGYIFTSYWMHWVKQRPGRGLEWIGRIDPNSGGTNYNEKFKSKATLTVDKPSSTVYMKISSLTSEDSAVYYCAREHDYDYAMDYWGQGTSVTVSS VL: DIVMTQAAPSVPVTPGESVSISCRSSKSLLHSNGNTYLYWFLQRPGQSPQLLIYRMSNLASGVPDRFSGSGSGTAFTLRISRVEAEDVGVYYCMQHLEYPFTFGSGTKLEIK | 33.9 | 265 | 3720 | 2.7 | 9980 | 1
 |  |  | 81.7 | 0.00057 | 6980 | 55.5 | 0.0015 | 26300 |  | monoclonal anti-C7 antibody 73D1 (antibody, IgG2a, V domains shown, also called mAb 73D1; antibody from hybridoma ECACC 19080601) VH: EVQLQQSGPELVKPGASVKMSCKASGYTFTDYNMHWVKQSHGKSLEWIGYINPNNGGPSYNQNFKGKATLTVNKSSSTAYMELRSLTSEDSAVYYCACGNYPDYWGQGTTLTVSS VL: DIQMTQSPASLSASVGETVTITCRASGNIHNYLAWYQQKQGKSPQLLVYNAKTLADGVPSRFSGSGSGTQYSLKINSLQPEDFGSYYCQHFWSTPLTFGAGTKLELK | 506 | 19.8 | 720 | 13.9 | 582 | 17.2
 |  |  |  |  |  | 1.02 | 6.94e-05 | 68300 | ~0.01 | monoclonal anti-C7 antibody 17E7 (antibody, IgG2a, V domains shown, also called mAb 17E7; antibody from hybridoma ECACC 19041601) VH: EVQLQQSGTVLARPGASVKMSCKTSGYSFTTYWMHWVKQRPGQGLEWIGAIYPGNSDTYYSQKFKDKAKLTAVTSASTAYMELSSLTNEDSAVYYCTRSGGYDVGGLDYWGQGTTLTVSS VL: DIVMTQSPATLSVTPGDGVSLSCRASQSISDYLHWYQQKSHESPRLLIKFASQSISGIPSRFSGSGSGSDFTLSINSVEPEDVGMYYCQNGHSFPFTFGSGTKLELK |  |  |  |  | 182 | 55.1
